The data set relates to Escherichia coli TOP10. The data set can be described thus: shrunken log2 fold change of peptide-encoding DNA abundance (4.5 h post-induction vs induction); higher = less antimicrobial activity (less host growth inhibition). The following applies: time post-induction: 4.5 h; library: site-saturation at positions 5, 18, 19, 20.

Experimental findings from the supplement of paper PMC9112550, “Optimization of the antimicrobial peptide Bac7 by deep mutational scanning” (BMC Biology, 2022) are described below.
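Note: peptides expressed intracellularly from a pBAD plasmid library in pooled LB shake-flask culture, induced with 0.3% L-arabinose, DNA abundance read by NGS, three biological replicates, DESeq2 with apeglm shrinkage.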

In the case of RRIRRRPPRLPRPRPRPKPVPRP, the “shrunken log2 fold change” value was 0.191. Consider RRIRCRPPRLPRPRPRPIRWPRP, for which the “shrunken log2 fold change” value amounted to 0.034. For RRIRRRPPRLPRPRPRPACVPRP, the “shrunken log2 fold change” value was 0.451. As for RRIRHRPPRLPRPRPRPFLAPRP, the “shrunken log2 fold change” value is -0.336. RRIRTRPPRLPRPRPRPTKAPRP: the “shrunken log2 fold change” value is 0.249. Regarding RRIRKRPPRLPRPRPRPYCKPRP, the “shrunken log2 fold change” value is 0.0355.

Turning to RRIRHRPPRLPRPRPRPGPQPRP, the “shrunken log2 fold change” value came to 0.0368. For RRIRFRPPRLPRPRPRPYHLPRP, the “shrunken log2 fold change” value was -0.643.

For the sequence RRIRERPPRLPRPRPRPHFHPRP, the “shrunken log2 fold change” value is -0.597. Consider RRIRERPPRLPRPRPRPPGVPRP, for which the “shrunken log2 fold change” value worked out at 0.232.

RRIRIRPPRLPRPRPRPSLYPRP: the “shrunken log2 fold change” value is -0.535.

For the sequence RRIRGRPPRLPRPRPRPGNMPRP, the “shrunken log2 fold change” value is -0.0382. With RRIRMRPPRLPRPRPRPFLAPRP the figure was 0.0298; with RRIRNRPPRLPRPRPRPGPVPRP, 0.127. For RRIRARPPRLPRPRPRPVEGPRP, the “shrunken log2 fold change” value was 0.329. As for RRIRMRPPRLPRPRPRPTQVPRP, the “shrunken log2 fold change” value was 1.17.

Consider RRIRVRPPRLPRPRPRPYIWPRP, for which the “shrunken log2 fold change” value is -0.504. Regarding RRIRTRPPRLPRPRPRPLHQPRP, the “shrunken log2 fold change” value turned out to be 0.0302. For RRIRPRPPRLPRPRPRPDAPPRP, the “shrunken log2 fold change” value came to 0.227. As to RRIRYRPPRLPRPRPRPCHTPRP, the “shrunken log2 fold change” value is -0.141.

Regarding RRIRQRPPRLPRPRPRPIIFPRP, the “shrunken log2 fold change” value is -0.271. In the case of RRIRSRPPRLPRPRPRPEVYPRP, the “shrunken log2 fold change” value came out at 0.104.

On to RRIRHRPPRLPRPRPRPSPHPRP, for which the “shrunken log2 fold change” value is -0.39.

On to RRIRERPPRLPRPRPRPKGIPRP, for which the “shrunken log2 fold change” value was -0.000842.

On to RRIRLRPPRLPRPRPRPMYIPRP, for which the “shrunken log2 fold change” value was -0.172. On to RRIRCRPPRLPRPRPRPNAKPRP, for which the “shrunken log2 fold change” value came out at 0.0347. Turning to RRIRDRPPRLPRPRPRPALNPRP, the “shrunken log2 fold change” value was -0.0576. As to RRIRHRPPRLPRPRPRPRLEPRP, the “shrunken log2 fold change” value was 0.0466. RRIRERPPRLPRPRPRPACPPRP: the “shrunken log2 fold change” value is -0.0623.

Regarding RRIRTRPPRLPRPRPRPPWAPRP, the “shrunken log2 fold change” value came out at 0.613. With RRIRHRPPRLPRPRPRPGKYPRP the figure was -0.0822; with RRIRPRPPRLPRPRPRPKGKPRP, -0.135. As to RRIRVRPPRLPRPRPRPGDSPRP, the “shrunken log2 fold change” value was -0.0395. With RRIRARPPRLPRPRPRPAVKPRP, the “shrunken log2 fold change” value turned out to be 0.233. As for RRIRGRPPRLPRPRPRPMVNPRP, the “shrunken log2 fold change” value stood at 0.744. As to RRIRKRPPRLPRPRPRPWNMPRP, the “shrunken log2 fold change” value was -0.181.

With RRIRSRPPRLPRPRPRPRITPRP, the “shrunken log2 fold change” value was -0.421. With RRIRHRPPRLPRPRPRPSQTPRP the figure was 0.067; with RRIRHRPPRLPRPRPRPSELPRP, 0.0169.

Take RRIRPRPPRLPRPRPRPDSHPRP: the “shrunken log2 fold change” value is 0.101. Regarding RRIRFRPPRLPRPRPRPGENPRP, the “shrunken log2 fold change” value was 0.995. On to RRIRYRPPRLPRPRPRPTMRPRP, for which the “shrunken log2 fold change” value came to 0.243. With RRIRRRPPRLPRPRPRPCMEPRP the figure was -0.174; with RRIRERPPRLPRPRPRPALTPRP, 0.131. In the case of RRIRYRPPRLPRPRPRPFLCPRP, the “shrunken log2 fold change” value is -1.19. Turning to RRIRKRPPRLPRPRPRPRRMPRP, the “shrunken log2 fold change” value came to 0.488.

Take RRIRFRPPRLPRPRPRPDEEPRP: the “shrunken log2 fold change” value is -0.00623. For the sequence RRIRMRPPRLPRPRPRPAYMPRP, the “shrunken log2 fold change” value is -0.0929. Regarding RRIRRRPPRLPRPRPRPKMFPRP, the “shrunken log2 fold change” value was -0.131. As to RRIRGRPPRLPRPRPRPDAIPRP, the “shrunken log2 fold change” value was 1.38. RRIRVRPPRLPRPRPRPFYSPRP: the “shrunken log2 fold change” value is -0.3.

With RRIRPRPPRLPRPRPRPCYWPRP, the “shrunken log2 fold change” value is -0.294. In the case of RRIRTRPPRLPRPRPRPWLQPRP, the “shrunken log2 fold change” value is -0.187. With RRIRCRPPRLPRPRPRPRGTPRP, the “shrunken log2 fold change” value stood at 0.0528.

As to RRIRTRPPRLPRPRPRPAMRPRP, the “shrunken log2 fold change” value turned out to be 0.445. As for RRIRDRPPRLPRPRPRPHDRPRP, the “shrunken log2 fold change” value was -0.00543. As to RRIRWRPPRLPRPRPRPFTSPRP, the “shrunken log2 fold change” value is -0.0735. Take RRIRWRPPRLPRPRPRPYMAPRP: the “shrunken log2 fold change” value is -0.247.

Consider RRIRSRPPRLPRPRPRPYDMPRP, for which the “shrunken log2 fold change” value is -0.122. The result for RRIRSRPPRLPRPRPRPRILPRP reads -0.34.

For the sequence RRIRHRPPRLPRPRPRPFPIPRP, the “shrunken log2 fold change” value is 0.0165. The result for RRIRTRPPRLPRPRPRPDHGPRP reads -0.0102; that for RRIRIRPPRLPRPRPRPMGSPRP, -0.0432; that for RRIRLRPPRLPRPRPRPLMRPRP, 0.807. On to RRIRRRPPRLPRPRPRPANEPRP, for which the “shrunken log2 fold change” value came to 0.245. Turning to RRIRERPPRLPRPRPRPEYIPRP, the “shrunken log2 fold change” value is -0.177. Regarding RRIRCRPPRLPRPRPRPVLVPRP, the “shrunken log2 fold change” value is -0.0168. RRIRWRPPRLPRPRPRPTEGPRP: the “shrunken log2 fold change” value is 0.0765. As for RRIRNRPPRLPRPRPRPDGGPRP, the “shrunken log2 fold change” value was -0.323. The result for RRIRQRPPRLPRPRPRPVLAPRP reads 0.232; that for RRIRKRPPRLPRPRPRPQQEPRP, 0.0644; that for RRIRHRPPRLPRPRPRPKSPPRP, -0.0893. As for RRIRLRPPRLPRPRPRPNQMPRP, the “shrunken log2 fold change” value is -0.437. The result for RRIRLRPPRLPRPRPRPLVFPRP reads -0.186. On to RRIRHRPPRLPRPRPRPTVGPRP, for which the “shrunken log2 fold change” value came out at 0.0689.

In the case of RRIRDRPPRLPRPRPRPHMLPRP, the “shrunken log2 fold change” value was -0.144. For the sequence RRIRLRPPRLPRPRPRPYNFPRP, the “shrunken log2 fold change” value was -0.0404. Regarding RRIRCRPPRLPRPRPRPYDIPRP, the “shrunken log2 fold change” value was 0.0852. For RRIRKRPPRLPRPRPRPKFHPRP, the “shrunken log2 fold change” value turned out to be 0.161.

RRIRGRPPRLPRPRPRPYDVPRP: the “shrunken log2 fold change” value is -0.00115. As to RRIRRRPPRLPRPRPRPAYYPRP, the “shrunken log2 fold change” value is 0.0681. On to RRIRTRPPRLPRPRPRPDHNPRP, for which the “shrunken log2 fold change” value is -0.471. Consider RRIRARPPRLPRPRPRPLPYPRP, for which the “shrunken log2 fold change” value stood at 0.0356. Take RRIRQRPPRLPRPRPRPIYYPRP: the “shrunken log2 fold change” value was -1.26.

As to RRIRCRPPRLPRPRPRPLVCPRP, the “shrunken log2 fold change” value was -0.0544. In the case of RRIRIRPPRLPRPRPRPHFEPRP, the “shrunken log2 fold change” value was -0.377. Regarding RRIRSRPPRLPRPRPRPPYDPRP, the “shrunken log2 fold change” value was -0.397.

As for RRIRSRPPRLPRPRPRPQIIPRP, the “shrunken log2 fold change” value is -0.226. As for RRIRDRPPRLPRPRPRPFNTPRP, the “shrunken log2 fold change” value was -0.686.

For RRIRNRPPRLPRPRPRPVCFPRP, the “shrunken log2 fold change” value is -0.162. RRIRPRPPRLPRPRPRPIFDPRP: the “shrunken log2 fold change” value was -0.137. On to RRIRDRPPRLPRPRPRPNKCPRP, for which the “shrunken log2 fold change” value was -0.104. Turning to RRIRARPPRLPRPRPRPVPQPRP, the “shrunken log2 fold change” value was 0.271. RRIRKRPPRLPRPRPRPALLPRP: the “shrunken log2 fold change” value came to 0.246.

On to RRIRSRPPRLPRPRPRPKWGPRP, for which the “shrunken log2 fold change” value stood at 0.228. With RRIRTRPPRLPRPRPRPNLNPRP, the “shrunken log2 fold change” value was -0.55. RRIRQRPPRLPRPRPRPQWVPRP: the “shrunken log2 fold change” value was 0.0126. Consider RRIRNRPPRLPRPRPRPWHYPRP, for which the “shrunken log2 fold change” value is -0.25. Turning to RRIRGRPPRLPRPRPRPVREPRP, the “shrunken log2 fold change” value was 1.11. In the case of RRIRLRPPRLPRPRPRPLRSPRP, the “shrunken log2 fold change” value was 0.474. The result for RRIRSRPPRLPRPRPRPFSDPRP reads -0.126; that for RRIRLRPPRLPRPRPRPMLIPRP, -0.0317; that for RRIRCRPPRLPRPRPRPDEKPRP, 0.118. On to RRIRRRPPRLPRPRPRPSWEPRP, for which the “shrunken log2 fold change” value was 0.1.

With RRIRNRPPRLPRPRPRPWFIPRP, the “shrunken log2 fold change” value was -0.306.

For RRIRCRPPRLPRPRPRPINPPRP, the “shrunken log2 fold change” value is -0.00918. The result for RRIRSRPPRLPRPRPRPNLWPRP reads -0.075. For RRIRVRPPRLPRPRPRPNMLPRP, the “shrunken log2 fold change” value was -0.432.

Regarding RRIRKRPPRLPRPRPRPCMSPRP, the “shrunken log2 fold change” value is -0.0865. As for RRIRLRPPRLPRPRPRPNKTPRP, the “shrunken log2 fold change” value was 0.0829. With RRIRHRPPRLPRPRPRPCRAPRP the figure was 0.0188; with RRIRHRPPRLPRPRPRPFCRPRP, -0.108; with RRIRFRPPRLPRPRPRPHSEPRP, -0.276. With RRIRDRPPRLPRPRPRPLCGPRP the figure was 0.32. Regarding RRIRHRPPRLPRPRPRPIVDPRP, the “shrunken log2 fold change” value worked out at 0.0237.

Regarding RRIRVRPPRLPRPRPRPITIPRP, the “shrunken log2 fold change” value was -0.0236. For RRIRHRPPRLPRPRPRPLQIPRP, the “shrunken log2 fold change” value amounted to 0.0781. The result for RRIRSRPPRLPRPRPRPLNTPRP reads -0.563; that for RRIRHRPPRLPRPRPRPDFGPRP, -0.156. In the case of RRIRHRPPRLPRPRPRPLNYPRP, the “shrunken log2 fold change” value was -0.289.

For the sequence RRIRNRPPRLPRPRPRPTTPPRP, the “shrunken log2 fold change” value is 0.152.

Regarding RRIRPRPPRLPRPRPRPTCRPRP, the “shrunken log2 fold change” value came out at 0.418. With RRIRFRPPRLPRPRPRPRNLPRP the figure was -0.016; with RRIRERPPRLPRPRPRPISYPRP, -0.0746. As to RRIRRRPPRLPRPRPRPPPFPRP, the “shrunken log2 fold change” value turned out to be 0.938.
